Experimental data from the supplement of paper PMC5998384.

Assays:
HeLa Kyoto [1] = assay: solubility in G1/S (NP-40 vs SDS abundance) (log2 ratio); higher = more soluble; settings: cell cycle stage: G1/S
HeLa Kyoto [2] = assay: solubility change mitosis vs G1/S (difference of NP-40 vs SDS log2 ratios) (log2 ratio difference); higher = more soluble in mitosis
HeLa Kyoto [3] = assay: thermal stability score vs G1/S (z-score of summed log2 fold changes over temperatures); higher = more thermally stable than in G1/S
[4] = cell cycle stage: early G1 (4.5 h after nocodazole release)
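Throughout, for solubility change mitosis vs G1/S (difference of NP-40 vs SDS log2 ratios): synchronized HeLa Kyoto cells (double thymidine block for G1/S, nocodazole release for mitosis), protein amounts in NP-40 versus SDS lysates quantified by mass spectrometry, three biological replicates.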
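Throughout, for solubility in G1/S (NP-40 vs SDS abundance): HeLa Kyoto cells arrested at G1/S by double thymidine block, proteins quantified by TMT10plex mass spectrometry in mild NP-40 versus SDS extracts, three biological replicates.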
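Throughout, for thermal stability score vs G1/S (z-score of summed log2 fold changes over temperatures): synchronized HeLa Kyoto cells, proteins quantified by TMT10plex mass spectrometry, three biological replicates, mitosis taken 0.5 h after nocodazole release, G1/S directly after double thymidine block.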

Sequence of IFT140 (chain, as listed by the source): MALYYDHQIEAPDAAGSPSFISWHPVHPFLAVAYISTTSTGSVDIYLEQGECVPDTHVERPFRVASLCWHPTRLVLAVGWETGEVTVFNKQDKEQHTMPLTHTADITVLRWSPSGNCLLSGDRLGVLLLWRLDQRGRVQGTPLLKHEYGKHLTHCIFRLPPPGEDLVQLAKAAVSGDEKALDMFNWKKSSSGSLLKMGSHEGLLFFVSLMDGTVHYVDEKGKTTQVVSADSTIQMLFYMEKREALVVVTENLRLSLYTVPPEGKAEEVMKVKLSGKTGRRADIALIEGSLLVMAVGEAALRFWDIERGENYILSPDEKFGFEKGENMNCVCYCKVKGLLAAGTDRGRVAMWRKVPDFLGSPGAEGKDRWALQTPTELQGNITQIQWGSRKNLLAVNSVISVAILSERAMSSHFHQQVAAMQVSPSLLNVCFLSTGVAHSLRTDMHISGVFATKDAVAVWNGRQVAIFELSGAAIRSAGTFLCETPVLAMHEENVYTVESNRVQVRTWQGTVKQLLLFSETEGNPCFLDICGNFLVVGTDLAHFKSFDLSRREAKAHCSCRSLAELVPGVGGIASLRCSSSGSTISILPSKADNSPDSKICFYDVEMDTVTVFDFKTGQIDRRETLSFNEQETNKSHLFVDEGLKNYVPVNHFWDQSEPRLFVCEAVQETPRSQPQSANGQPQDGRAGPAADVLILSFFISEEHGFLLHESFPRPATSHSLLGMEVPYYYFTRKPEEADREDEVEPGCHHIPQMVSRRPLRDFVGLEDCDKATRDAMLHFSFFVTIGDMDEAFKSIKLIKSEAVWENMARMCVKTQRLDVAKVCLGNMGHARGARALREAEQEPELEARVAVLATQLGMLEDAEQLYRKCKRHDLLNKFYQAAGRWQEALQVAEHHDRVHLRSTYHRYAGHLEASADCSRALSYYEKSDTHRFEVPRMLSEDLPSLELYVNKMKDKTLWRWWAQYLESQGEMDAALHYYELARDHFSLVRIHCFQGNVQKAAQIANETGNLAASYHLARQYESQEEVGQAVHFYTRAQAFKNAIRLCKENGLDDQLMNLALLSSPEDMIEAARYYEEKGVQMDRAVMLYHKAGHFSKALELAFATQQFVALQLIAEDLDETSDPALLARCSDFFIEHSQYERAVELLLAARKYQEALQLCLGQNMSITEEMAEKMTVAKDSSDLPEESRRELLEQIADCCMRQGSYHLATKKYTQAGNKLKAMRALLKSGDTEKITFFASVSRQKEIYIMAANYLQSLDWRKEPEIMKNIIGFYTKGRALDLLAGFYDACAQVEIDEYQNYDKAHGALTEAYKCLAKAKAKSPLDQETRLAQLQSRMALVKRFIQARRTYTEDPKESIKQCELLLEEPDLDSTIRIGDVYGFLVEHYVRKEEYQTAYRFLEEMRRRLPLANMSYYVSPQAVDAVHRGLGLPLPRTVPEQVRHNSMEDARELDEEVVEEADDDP

Substance | solubility in G1/S (log2) (HeLa Kyoto [1]) | solubility change mitosis (log2) (HeLa Kyoto [2]) | thermal stability score (HeLa Kyoto [3]; [4]) | thermal stability score (HeLa Kyoto [3]; cell cycle stage: mitosis)
MGPKRRQLTFREKSRIIQEVEENPDLRKGEIARRFNIPPSTLSTILKNKRAILASERKYGVASTCRKTNKLSPYDKLEGLLIAWFQQIRAAGLPVKGIILKEKALRIAEELGMDDFTASNGWLDRFRRRHGVVSCSGVARARARNAAPRTPAAPASPAAVPSEGSGGSTTGWRAREEQPPSVAEGYASQDVFSATETSLWYDFLPDQAAGLCGGDGRPRQATQRLSVLLCANADGSEKLPPLVAGKSAKPRAGQAGLPCDYTANSKGGVTTQALAKYLKALDTRMAAESRRVLLLAGRLAAQSLDTSGLRHVQLAFFPPGTVHPLERGVVQQVKGHYRQAMLLKAMAALEGQDPSGLQLGLTEALHFVAAAWQAVEPSDIAACFREAGFGGGPNATITTSLKSEGEEEEEEEEEEEEEEGEGEEEEEEGEEEEEEGGEGEELGEEEEVEEEGDVDSDEEEEEDEESSSEGLEAEDWAQGVVEAGGSFGAYGAQEEAQCPTLHFLEGGEDSDSDSEEEDDEEEDDEDEDDDDDEEDGDEVPVPSFGEAMAYFAMVKRYLTSFPIDDRVQSHILHLEHDLVHVTRKNHARQAGVRGLGHQS [CENPB] | -0.711 | -0.105 | – | –
MAP3K1 | -0.0921 | -0.131 | – | –
MDEQPRLMHSHAGVGMAGHPGLSQHLQDGAGGTEGEGGRKQDIGDILQQIMTITDQSLDEAQARKHALNCHRMKPALFNVLCEIKEKTVLSIRGAQEEEPTDPQLMRLDNMLLAEGVAGPEKGGGSAAAAAAAAASGGAGSDNSVEHSDYRAKLSQIRQIYHTELEKYEQACNEFTTHVMNLLREQSRTRPISPKEIERMVSIIHRKFSSIQMQLKQSTCEAVMILRSRFLDARRKRRNFNKQATEILNEYFYSHLSNPYPSEEAKEELAKKCGITVSQVSNWFGNKRIRYKKNIGKFQEEANIYAAKTAVTATNVSAHGSQANSPSTPNSAGSSSSFNMSNSGDLFMSVQSLNGDSYQGAQVGANVQSQVDTLRHVISQTGGYSDGLAASQMYSPQGISANGGWQDATTPSSVTSPTEGPGSVHSDTSN [PBX1] | 0.177 | 0.0731 | – | –
MVARVWSLMRFLIKGSVAGGAVYLVYDQELLGPSDKSQAALQKAGEVVPPAMYQFSQYVCQQTGLQIPQLPAPPKIYFPIRDSWNAGIMTVMSALSVAPSKAREYSKEGWEYVKARTK [MIC13] | 0.091 | 0.449 | – | –
MADSAELKQMVMSLRVSELQVLLGYAGRNKHGRKHELLTKALHLLKAGCSPAVQMKIKELYRRRFPQKIMTPADLSIPNVHSSPMPATLSPSTIPQLTYDGHPASSPLLPVSLLGPKHELELPHLTSALHPVHPDIKLQKLPFYDLLDELIKPTSLASDNSQRFRETCFAFALTPQQVQQISSSMDISGTKCDFTVQVQLRFCLSETSCPQEDHFPPNLCVKVNTKPCSLPGYLPPTKNGVEPKRPSRPINITSLVRLSTTVPNTIVVSWTAEIGRNYSMAVYLVKQLSSTVLLQRLRAKGIRNPDHSRALIKEKLTADPDSEIATTSLRVSLLCPLGKMRLTIPCRALTCSHLQCFDATLYIQMNEKKPTWVCPVCDKKAPYEHLIIDGLFMEILKYCTDCDEIQFKEDGTWAPMRSKKEVQEVSASYNGVDGCLSSTLEHQVASHHQSSNKNKKVEVIDLTIDSSSDEEEEEPSAKRTCPSLSPTSPLNNKGILSLPHQASPVSRTPSLPAVDTSYINTSLIQDYRHPFHMTPMPYDLQGLDFFPFLSGDNQHYNTSLLAAAAAAVSDDQDLLHSSRFFPYTSSQMFLDQLSAGGSTSLPTTNGSSSGSNSSLVSSNSLRESHSHTVTNRSSTDTASIFGIIPDIISLD [PIAS1] | -0.461 | 0.113 | – | –
MSVDKAELCGSLLTWLQTFHVPSPCASPQDLSSGLAVAYVLNQIDPSWFNEAWLQGISEDPGPNWKLKVSNLKMVLRSLVEYSQDVLAHPVSEEHLPDVSLIGEFSDPAELGKLLQLVLGCAISCEKKQDHIQRIMTLEESVQHVVMEAIQELMTKDTPDSLSPETYGNFDSQSRRYYFLSEEAEEGDELQQRCLDLERQLMLLSEEKQSLAQENAGLRERMGRPEGEGTPGLTAKKLLLLQSQLEQLQEENFRLESGREDERLRCAELEREVAELQHRNQALTSLAQEAQALKDEMDELRQSSERAGQLEATLTSCRRRLGELRELRRQVRQLEERNAGHAERTRQLEDELRRAGSLRAQLEAQRRQVQELQGQRQEEAMKAEKWLFECRNLEEKYESVTKEKERLLAERDSLREANEELRCAQLQPRGLTQADPSLDPTSTPVDNLAAEILPAELRETLLRLQLENKRLCRQEAADRERQEELQRHLEDANRARHGLETQHRLNQQQLSELRAQVEDLQKALQEQGGKTEDAISILLKRKLEEHLQKLHEADLELQRKREYIEELEPPTDSSTARRIEELQHNLQKKDADLRAMEERYRRYVDKARMVMQTMEPKQRPAAGAPPELHSLRTQLRERDVRIRHLEMDFEKSRSQREQEEKLLISAWYNMGMALQQRAGEERAPAHAQSFLAQQRLATNSRRGPLGRLASLNLRPTDKH [HOOK2] | 0.231 | -0.0619 | – | –
MASASARGNQDKDAHFPPPSKQSLLFCPKSKLHIHRAEISKIMRECQEESFWKRALPFSLVSMLVTQGLVYQGYLAANSRFGSLPKVALAGLLGFGLGKVSYIGVCQSKFHFFEDQLRGAGFGPQHNRHCLLTCEECKIKHGLSEKGDSQPSAS [OCIAD2] | 0.0856 | -0.0442 | – | –
MARTLEPLAKKIFKGVLVAELVGVFGAYFLFSKMHTSQDFRQTMSKKYPFILEVYYKSTEKSGMYGIRELDQKTWLNSKN [CEBPZOS] | -0.306 | -0.012 | – | –
MSEIRKDTLKAILLELECHFTWNLLKEDIDLFEVEDTIGQQLEFLTTKSRLALYNLLAYVKHLKGQNKDALECLEQAEEIIQQEHSDKEEVRSLVTWGNYAWVYYHMDQLEEAQKYTGKIGNVCKKLSSPSNYKLECPETDCEKGWALLKFGGKYYQKAKAAFEKALEVEPDNPEFNIGYAITVYRLDDSDREGSVKSFSLGPLRKAVTLNPDNSYIKVFLALKLQDVHAEAEGEKYIEEILDQISSQPYVLRYAAKFYRRKNSWNKALELLKKALEVTPTSSFLHHQMGLCYRAQMIQIKKATHNRPKGKDKLKVDELISSAIFHFKAAMERDSMFAFAYTDLANMYAEGGQYSNAEDIFRKALRLENITDDHKHQIHYHYGRFQEFHRKSENTAIHHYLEALKVKDRSPLRTKLTSALKKLSTKRLCHNALDVQSLSALGFVYKLEGEKRQAAEYYEKAQKIDPENAEFLTALCELRLSI [IFIT5] | 0.129 | 0.0621 | – | –
IFT140 | -0.373 | 0.0597 | – | –
MTKDKNSPGLKKKSQSVDINAPGFNPLAGAGKQTPQASKPPAPKTPIIEEEQNNAANTQKHPSRRSELKRFYTIDTGQKKTLDKKDGRRMSFQKPKGTIEYTVESRDSLNSIALKFDTTPNELVQLNKLFSRAVVTGQVLYVPDPEYVSSVESSPSLSPVSPLSPTSSEAEFDKTTNPDVHPTEATPSSTFTGIRPARVVSSTSEEEEAFTEKFLKINCKYITSGKGTVSGVLLVTPNNIMFDPHKNDPLVQENGCEEYGIMCPMEEVMSAAMYKEILDSKIKESLPIDIDQLSGRDFCHSKKMTGSNTEEIDSRIRDAGNDSASTAPRSTEESLSEDVFTESELSPIREELVSSDELRQDKSSGASSESVQTVNQAEVESLTVKSESTGTPGHLRSDTEHSTNEVGTLCHKTDLNNLEMAIKEDQIADNFQGISGPKEDSTSIKGNSDQDSFLHENSLHQEESQKENMPCGETAEFKQKQSVNKGKQGKEQNQDSQTEAEELRKLWKTHTMQQTKQQRENIQQVSQKEAKHKITSADGHIESSALLKEKQRHRLHKFLCLRVGKPMRKTFVSQASATMQQYAQRDKKHEYWFAVPQERTDHLYAFFIQWSPEIYAEDTGEYTREPGFIVVKKIEESETIEDSSNQAAAREWEVVSVAEYHRRIDALNTEELRTLCRRLQITTREDINSKQVATVKADLESESFRPNLSDPSELLLPDQIEKLTKHLPPRTIGYPWTLVYGTGKHGTSLKTLYRTMTGLDTPVLMVIKDSDGQVFGALASEPLKVSDGFYGTGETFVFTFCPEFEVFKWTGDNMFFIKGDMDSLAFGGGGGEFALWLDGDLYHGRSHSCKTFGNRTLSKKEDFFIQDIEIWAFE [OXR1] | – | -0.176 | -0.363 | -2.03
MMCGAPSATQPATAETQHIADQVRSQLEEKENKKFPVFKAVSFKSQVVAGTNYFIKVHVGDEDFVHLRVFQSLPHENKPLTLSNYQTNKAKHDELTYF [CSTB] | – | -0.077 | -2.35 | -3.83
MAQPGTLNLNNEVVKMRKEVKRIRVLVIRKLVRSVGRLKSKKGTEDALLKNQRRAQRLLEEIHAMKELKPDIVTKSALGDDINFEKIFKKPDSTATERAIARLAVHPLLKKKIDVLKAAVQAFKEARQNVAEVESSKNASEDNHSENTLYSNDNGSNLQREATVISEQKVKETKILAKKPIHNSKEKIAKMEHGPKAVTIANSPSKPSEKDSVVSLESQKTPADPKLKTLSQTKKNKGSDSSLSGNSDGGEEFCEEEKEYFDDSTEERFYKQSSMSEDSDSGDDFFIGKVRRTRKKESSCHSSVKEQKPLEKVFLKEDTGETHGDTRNDKIKPSTETRKLESVFFHSLSGSKSSRRNFKEQAPKTRSLDFPQNEPQIKNQFNKKLSGRLENTKQQLQLPLHPSWEASRRRKEQQSNIAVFQGKKITFDD [SRFBP1] | – | 0.584 | -0.14 | -0.669
MALSKRELDELKPWIEKTVKRVLGFSEPTVVTAALNCVGKGMDKKKAADHLKPFLDDSTLRFVDKLFEAVEEGRSSRHSKSSSDRSRKRELKEVFGDDSEISKESSGVKKRRIPRFEEVEEEPEVIPGPPSESPGMLTKLQIKQMMEAATRQIEERKKQLSFISPPTPQPKTPSSSQPERLPIGNTIQPSQAATFMNDAIEKARKAAELQARIQAQLALKPGLIGNANMVGLANLHAMGIAPPKVELKDQTKPTPLILDEQGRTVDATGKEIELTHRMPTLKANIRAVKREQFKQQLKEKPSEDMESNTFFDPRVSIAPSQRQRRTFKFHDKGKFEKIAQRLRTKAQLEKLQAEISQAARKTGIHTSTRLALIAPKKELKEGDIPEIEWWDSYIIPNGFDLTEENPKREDYFGITNLVEHPAQLNPPVDNDTPVTLGVYLTKKEQKKLRRQTRREAQKELQEKVRLGLMPPPEPKVRISNLMRVLGTEAVQDPTKVEAHVRAQMAKRQKAHEEANAARKLTAEQRKVKKIKKLKEDISQGVHISVYRVRNLSNPAKKFKIEANAGQLYLTGVVVLHKDVNVVVVEGGPKAQKKFKRLMLHRIKWDEQTSNTKGDDDEESDEEAVKKTNKCVLVWEGTAKDRSFGEMKFKQCPTENMAREHFKKHGAEHYWDLALSESVLESTD [PRPF3] | – | 0.331 | 0.798 | 3.15
MSYGRPPPDVEGMTSLKVDNLTYRTSPDTLRRVFEKYGRVGDVYIPRDRYTKESRGFAFVRFHDKRDAEDAMDAMDGAVLDGRELRVQMARYGRPPDSHHSRRGPPPRRYGGGGYGRRSRSPRRRRRSRSRSRSRSRSRSRSRYSRSKSRSRTRSRSRSTSKSRSARRSKSKSSSVSRSRSRSRSRSRSRSPPPVSKRESKSRSRSKSPPKSPEEEGAVSS [SRSF2] | – | 0.24 | -2.71 | -5.51
